The test system of data set [1] is HeLa Kyoto. The experiment in a line: melting temperature (median over replicates), in situ; higher = more thermally stable.
The test system of data set [2] is HeLa Kyoto. The experiment in a line: thermal stability score vs G1/S (z-score of summed log2 fold changes over temperatures); higher = more thermally stable than in G1/S.
For data set [3], the system named is HeLa Kyoto. The experiment in a line: solubility in G1/S (NP-40 vs SDS abundance) (log2 ratio); higher = more soluble. The following applies: cell cycle stage: G1/S.
For data set [4], the system named is HeLa Kyoto. The experiment in a line: solubility change mitosis vs G1/S (difference of NP-40 vs SDS log2 ratios) (log2 ratio difference); higher = more soluble in mitosis.
The mark [5] stands for this setting: cell cycle stage: early G1 (4.5 h after nocodazole release).
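Throughout, for melting temperature (median over replicates), in situ: HeLa Kyoto cells synchronized by double thymidine or nocodazole block, proteins quantified by TMT10plex mass spectrometry, three independent biological replicates.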
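Throughout, for solubility change mitosis vs G1/S (difference of NP-40 vs SDS log2 ratios): synchronized HeLa Kyoto cells (double thymidine block for G1/S, nocodazole release for mitosis), protein amounts in NP-40 versus SDS lysates quantified by mass spectrometry, three biological replicates.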
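Throughout, for solubility in G1/S (NP-40 vs SDS abundance): HeLa Kyoto cells arrested at G1/S by double thymidine block, proteins quantified by TMT10plex mass spectrometry in mild NP-40 versus SDS extracts, three biological replicates.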
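Throughout, for thermal stability score vs G1/S (z-score of summed log2 fold changes over temperatures): synchronized HeLa Kyoto cells, proteins quantified by TMT10plex mass spectrometry, three biological replicates, mitosis taken 0.5 h after nocodazole release, G1/S directly after double thymidine block.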

As to “MAADISESSGADCKGDPRNSAKLDADYPLRVLYCGVCSLPTEYCEYMPDVAKCRQWLEKNFPNEFAKLTVENSPKQEAGISEGQGTAGEEEEKKKQKRGGRGQIKQKKKTVPQKVTIAKIPRAKKKYVTRVCGLATFEIDLKEAQRFFAQKFSCGASVTGEDEIIIQGDFTDDIIDVIQEKWPEVDDDSIEDLGEVKK [DENR]”, the results for the melting temperature in data set [1] (cell cycle stage: G1/S) and in data set [1] (cell cycle stage: mitosis) were 56.9 °C and 58.6 °C, respectively. Further, the thermal stability score in data set [2] (setting [5]) turned out to be 0.263; in data set [2] (cell cycle stage: mitosis), 0.467. The “solubility in G1/S (log2)” value in data set [3] is 0.481. Besides, in data set [4], the “solubility change mitosis (log2)” value turned out to be 0.142.

Regarding “MAAEAADLGLGAAVPVELRRERRMVCVEYPGVVRDVAKMLPTLGGEEGVSRIYADPTKRLELYFRPKDPYCHPVCANRFSTSSLLLRIRKRTRRQKGVLGTEAHSEVTFDMEILGIISTIYKFQGMSDFQYLAVHTEAGGKHTSMYDKVLMLRPEKEAFFHQELPLYIPPPIFSRLDAPVDYFYRPETQHREGYNNPPISGENLIGLSRARRPHNAIFVNFEDEEVPKQPLEAAAQTWRRVCTNPVDRKVEEELRKLFDIRPIWSRNAVKANISVHPDKLKVLLPFIAYYMITGPWRSLWIRFGYDPRKNPDAKIYQVLDFRIRCGMKHGYAPSDLPVKAKRSTYNYSLPITVKKTSSQLVTMHDLKQGLGPSGTSGARKPASSKYKLKDSVYIFREGALPPYRQMFYQLCDLNVEELQKIIHRNDGAENSCTERDGWCLPKTSDELRDTMSLMIRQTIRSKRPALFSSSAKADGGKEQLTYESGEDEEDEEEEEEEEEDFKPSDGSENEMETEILDYV [GTF3C5]”, the melting temperature was determined as 47.8 °C in data set [1] (cell cycle stage: G1/S) and 49.4 °C in data set [1] (cell cycle stage: mitosis). In addition, the thermal stability score in data set [2] (setting [5]) was 2.34; in data set [2] (cell cycle stage: mitosis) it was 4.79. The “solubility in G1/S (log2)” value in data set [3] was -0.0747. Besides, the “solubility change mitosis (log2)” value in data set [4] is -0.0211.

For the sequence “MAAEGWIWRWGWGRRCLGRPGLLGPGPGPTTPLFLLLLLGSVTADITDGNSEHLKREHSLIKPYQGVGSSSMPLWDFQGSTMLTSQYVRLTPDERSKEGSIWNHQPCFLKDWEMHVHFKVHGTGKKNLHGDGIALWYTRDRLVPGPVFGSKDNFHGLAIFLDTYPNDETTERVFPYISVMVNNGSLSYDHSKDGRWTELAGCTADFRNRDHDTFLAVRYSRGRLTVMTDLEDKNEWKNCIDITGVRLPTGYYFGASAGTGDLSDNHDIISMKLFQLMVEHTPDEESIDWTKIEPSVNFLKSPKDNVDDPTGNFRSGPLTGWRVFLLLLCALLGIVVCAVVGAVVFQKRQERNKRFY [LMAN2]”, the melting temperature in data set [1] (cell cycle stage: G1/S) turned out to be 54.1 °C; in data set [1] (cell cycle stage: mitosis) it was 53.8 °C. Moreover, the thermal stability score amounted to 2.85 in data set [2] (setting [5]) and 5.52 in data set [2] (cell cycle stage: mitosis). Besides, the “solubility in G1/S (log2)” value in data set [3] worked out at 0.163. Moreover, the “solubility change mitosis (log2)” value in data set [4] was -0.0609.

On to “MAAEREPPPLGDGKPTDFEDLEDGEDLFTSTVSTLESSPSSPEPASLPAEDISANSNGPKPTEVVLDDDREDLFAEATEEVSLDSPEREPILSSEPSPAVTPVTPTTLIAPRIESKSMSAPVIFDRSREEIEEEANGDIFDIEIGVSDPEKVGDGMNAYMAYRVTTKTSLSMFSKSEFSVKRRFSDFLGLHSKLASKYLHVGYIVPPAPEKSIVGMTKVKVGKEDSSSTEFVEKRRAALERYLQRTVKHPTLLQDPDLRQFLESSELPRAVNTQALSGAGILRMVNKAADAVNKMTIKMNESDAWFEEKQQQFENLDQQLRKLHVSVEALVCHRKELSANTAAFAKSAAMLGNSEDHTALSRALSQLAEVEEKIDQLHQEQAFADFYMFSELLSDYIRLIAAVKGVFDHRMKCWQKWEDAQITLLKKREAEAKMMVANKPDKIQQAKNEIREWEAKVQQGERDFEQISKTIRKEVGRFEKERVKDFKTVIIKYLESLVQTQQQLIKYWEAFLPEAKAIA [SNX2]”, for which the melting temperature in data set [1] (cell cycle stage: G1/S) is 51.4 °C; in data set [1] (cell cycle stage: mitosis) it was 51.2 °C. Besides, the thermal stability score in data set [2] (setting [5]) is 0.424; in data set [2] (cell cycle stage: mitosis), -0.352. Further, the “solubility in G1/S (log2)” value in data set [3] is 0.143. The “solubility change mitosis (log2)” value in data set [4] was -0.226.

In the case of “MAAEWASRFWLWATLLIPAAAVYEDQVGKFDWRQQYVGKVKFASLEFSPGSKKLVVATEKNVIAALNSRTGEILWRHVDKGTAEGAVDAMLLHGQDVITVSNGGRIMRSWETNIGGLNWEITLDSGSFQALGLVGLQESVRYIAVLKKTTLALHHLSSGHLKWVEHLPESDSIHYQMVYSYGSGVVWALGVVPFSHVNIVKFNVEDGEIVQQVRVSTPWLQHLSGACGVVDEAVLVCPDPSSRSLQTLALETEWELRQIPLQSLDLEFGSGFQPRVLPTQPNPVDASRAQFFLHLSPSHYALLQYHYGTLSLLKNFPQTALVSFATTGEKTVAAVMACRNEVQKSSSSEDGSMGSFSEKSSSKDSLACFNQTYTINLYLVETGRRLLDTTITFSLEQSGTRPERLYIQVFLKKDDSVGYRALVQTEDHLLLFLQQLAGKVVLWSREESLAEVVCLEMVDLPLTGAQAELEGEFGKKADGLLGMFLKRLSSQLILLQAWTSHLWKMFYDARKPRSQIKNEINIDTLARDEFNLQKMMVMVTASGKLFGIESSSGTILWKQYLPNVKPDSSFKLMVQRTTAHFPHPPQCTLLVKDKESGMSSLYVFNPIFGKWSQVAPPVLKRPILQSLLLPVMDQDYAKVLLLIDDEYKVTAFPATRNVLRQLHELAPSIFFYLVDAEQGRLCGYRLRKDLTTELSWELTIPPEVQRIVKVKGKRSSEHVHSQGRVMGDRSVLYKSLNPNLLAVVTESTDAHHERTFIGIFLIDGVTGRIIHSSVQKKAKGPVHIVHSENWVVYQYWNTKARRNEFTVLELYEGTEQYNATAFSSLDRPQLPQVLQQSYIFPSSISAMEATITERGITSRHLLIGLPSGAILSLPKALLDPRRPEIPTEQSREENLIPYSPDVQIHAERFINYNQTVSRMRGIYTAPSGLESTCLVVAYGLDIYQTRVYPSKQFDVLKDDYDYVLISSVLFGLVFATMITKRLAQVKLLNRAWR [EMC1]”, the melting temperature in data set [1] (cell cycle stage: G1/S) was 55.1 °C; in data set [1] (cell cycle stage: mitosis), 54.8 °C. Moreover, the thermal stability score was 1.42 in data set [2] (setting [5]) and 1.57 in data set [2] (cell cycle stage: mitosis). Besides, the “solubility in G1/S (log2)” value in data set [3] came to 0.0605. In addition, in data set [4], the “solubility change mitosis (log2)” value was -0.266.

Take “MAAGGRMEDGSLDITQSIEDDPLLDAQLLPHHSLQAHFRPRFHPLPTVIIVNLLWFIHLVFVVLAFLTGVLCSYPNPNEDKCPGNYTNPLKVQTVIILGKVILWILHLLLECYIQYHHSKIRNRGYNLIYRSTRHLKRLALMIQSSGNTVLLLILCMQHSFPEPGRLYLDLILAILALELICSLICLLIYTVKIRRFNKAKPEPDILEEEKIYAYPSNITSETGFRTISSLEEIVEKQGDTIEYLKRHNALLSKRLLALTSSDLGCQPSRT [TMEM192]”: the melting temperature in data set [1] (cell cycle stage: G1/S) came out at 55.6 °C; in data set [1] (cell cycle stage: mitosis) it was 55.9 °C. Moreover, the thermal stability score in data set [2] (setting [5]) is 0.271; in data set [2] (cell cycle stage: mitosis), -1.67. The “solubility in G1/S (log2)” value in data set [3] is 0.0852. Besides, the “solubility change mitosis (log2)” value in data set [4] was -0.241.

Values taken from the supplement of paper PMC5998384.
